Test results reported in the supplement of paper PMC9732359.
± gives the uncertainty stated by the source.

Assay: protein stability index of a GFP-peptide fusion (yeast GPS) (PSI 1-4); higher = more stable; sorted into four equal gates, so the index is relative within each strain
Outline: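 Peptides tiling yeast proteins in 17-residue segments were fused downstream of GFP, with Cherry expressed from the same plasmid. As a pooled library in yeast, mid-log cultures grown in leucine-free medium were sorted into four equal gates by GFP/Cherry fluorescence ratio. Gate plasmids were PCR-amplified and Illumina-sequenced, and barcodes linked reads to strains. Each peptide received a protein stability index equal to the sum of each gate's read frequency times its gate number.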

Sequence	protein stability index (doa10∆)	protein stability index (pdr5∆)	protein stability index (san1∆)	protein stability index (ubr1∆)
SGTAATGAASNQSSFNF [YOR098C/NUP1]	2.7 ± 0.072	3.01 ± 0.09	2.68 ± 0.12	3.07 ± 0.053
NPASATDNMSGRGLWNP [YJL039C/NUP192]	2.71 ± 0.079	3.1 ± 0.082	2.8 ± 0.076	3.16 ± 0.075
FLQELLKKVQQQQQAAA [SWI1]	2.06 ± 0.081	2.6 ± 0.088	2.47 ± 0.1	2.85 ± 0.1
ATFSVSQASSDLGETFR [CSL4]	3.04 ± 0.086	2.64 ± 0.064	3.23 ± 0.065	2.57 ± 0.041
NLFSSTGFKGLLIELQA [SRB2]	2.6 ± 0.12	2.87 ± 0.069	2.92 ± 0.058	2.94 ± 0.042
DAFNMLSLTTVPCDRIE [SNF6]	2.18 ± 0.05	2.57 ± 0.064	2.43 ± 0.091	2.4 ± 0.069
KFPTRKIYMLYSLQPSV [RPC34]		2.13 ± 0.23		
DYDVSKKASEISVSSRS [SRP14]	3.52 ± 0.15		3.2 ± 0.15	2.98 ± 0.21
THIPQTNLKNHPAYLFK [YLR018C/POM34]	2.84 ± 0.059	2.83 ± 0.04	2.64 ± 0.054	2.75 ± 0.029
IRDSIPQMDSFDKDLER [DIS3]	3.15 ± 0.092	3.32 ± 0.1	3.19 ± 0.061	3.01 ± 0.12
GSDEAYVKDARKDTVSR [RPC40]	3.23 ± 0.11	3.17 ± 0.12	3.13 ± 0.061	3.35 ± 0.13
DPQDVFNYNIFMHDPSV [SIR2]	2.66 ± 0.08	2.02 ± 0.074	1.35 ± 0.12	2.69 ± 0.089
RVIDDNNRRRSRKRGGE [SIR3]	3.57 ± 0.086	3.36 ± 0.11	3.21 ± 0.11	3.46 ± 0.084
VPQSEETRAELSQLCAV [RPO21]	2.37 ± 0.067	3.02 ± 0.065	2.79 ± 0.067	3.09 ± 0.061
SDDDNIGQSEELSDKEI [ISW2]	3.31 ± 0.1	3.44 ± 0.09	3.31 ± 0.08	3.41 ± 0.12
REDIDDPLAKVNVLLQS [BRR2]	2.91 ± 0.12	3.04 ± 0.088	3.19 ± 0.092	2.96 ± 0.11
ADSAVNRQTLMFTATMT [PRP28]	2.6 ± 0.056	2.72 ± 0.049	2.58 ± 0.046	2.65 ± 0.049
QFSYVDSSMTTVQENEL [AAR2]	2.62 ± 0.044	2.99 ± 0.05	2.98 ± 0.04	2.95 ± 0.052
IAIAGTGQIEGLLDYMR [COR1]	3.37 ± 0.088	3.54 ± 0.081	3.17 ± 0.061	3.15 ± 0.057
VKPISIEAPQFYRYWSA [SWI3]	2.23 ± 0.036	2.09 ± 0.036	1.85 ± 0.055	2.02 ± 0.032
GSKQILKTEAANVLDPS [BRR2]	3.11 ± 0.075	2.99 ± 0.076	3 ± 0.056	3.19 ± 0.067
DPNLSFESSSSLPFLLR [SSN2]	3.07 ± 0.16	3.19 ± 0.13	2.94 ± 0.1	2.82 ± 0.13
RNSVKLLSKLLLKHPFK [YCS4]	2.41 ± 0.042	2.1 ± 0.038	1.92 ± 0.056	2.07 ± 0.04
DLFSNNNYNSRIQLMND [MED1]	3 ± 0.2	2.9 ± 0.25	2.93 ± 0.11	3.06 ± 0.13
LGKGGAKRHRKILRDNI [HHF1]	3.36 ± 0.26	3.21 ± 0.17	3.4 ± 0.19	2.99 ± 0.14
FKCQEKDKGVYVVTSDE [SIR2]	2.94 ± 0.076	3.08 ± 0.085	3.27 ± 0.072	3.34 ± 0.054
KLKNENTDLKDIIQGNP [PCI8]	2.82 ± 0.051	3.21 ± 0.084	2.75 ± 0.14	3.25 ± 0.089

Sequence	protein stability index (doa10∆)	protein stability index (pdr5∆)	protein stability index (san1∆)	protein stability index (ubr1∆)
RLGSEADAKAFLDSMAQ [FAS2]	3.38 ± 0.091	3.44 ± 0.081	3.21 ± 0.062	3.33 ± 0.11
KVKAGVRSANEDGTFSV [RRP43]	3.2 ± 0.097	3.24 ± 0.11	3.48 ± 0.061	3.43 ± 0.077
FEGNVATKAINGCIFTL [PRP8]	2.57 ± 0.068	2.32 ± 0.049	1.97 ± 0.053	2.71 ± 0.05
LALSSNISRDFQSYIVS [COR1]	2.03 ± 0.073	2.71 ± 0.084	2.09 ± 0.1	1.88 ± 0.047
LMEEIESLKKELQIFKT [YIL149C/MLP2]	2.94 ± 0.094	2.96 ± 0.068	2.82 ± 0.072	3.08 ± 0.055
PNEHPGAKYVIRDSGDR [RPO21]	3.01 ± 0.084	3.1 ± 0.087	2.7 ± 0.15	3.03 ± 0.069
NVIDTQRKNGVTNSPLF [ECM29]	3 ± 0.25	3.19 ± 0.091	3.09 ± 0.21	3.12 ± 0.11
STLQHFQETLDSTVVYP [MED8]	2.99 ± 0.068	3.11 ± 0.055	2.96 ± 0.055	3.17 ± 0.041
FLLSAMTMASKSLEVVN [NSL1]	1.4 ± 0.08	1.45 ± 0.069	1.54 ± 0.15	1.61 ± 0.047
KKEEKLNIGKNFAHSDS [SIR4]	3.18 ± 0.059	2.97 ± 0.057	3.12 ± 0.033	3.11 ± 0.037
FGKTGDQKETKKGESEK [YOR098C/NUP1]	3.4 ± 0.1	3.4 ± 0.11	3.45 ± 0.076	3.35 ± 0.061
QTEIKDIILGQNIKAPS [PRP8]	2.6 ± 0.087	3.04 ± 0.074	2.58 ± 0.11	2.78 ± 0.07
DSVLQLASFEKTTDHLF [RPO31]	2.63 ± 0.054	2.64 ± 0.04	2.83 ± 0.06	2.74 ± 0.041
VRMLASPMLYKVPDISS [BRR2]	2.28 ± 0.073	2.77 ± 0.078	1.96 ± 0.1	2.28 ± 0.051
KNVETLEEKILAKKTHK [SMC4]	2.65 ± 0.075	2.94 ± 0.077	2.79 ± 0.053	2.92 ± 0.11
DDGDDEDLLECLDRCKE [MTR3]	2.57 ± 0.097	3.08 ± 0.084	2.87 ± 0.085	2.77 ± 0.11
ASGSINRKVLQALEKIG [RPS19A]	1.39 ± 0.071	2 ± 0.12	1.67 ± 0.11	1.99 ± 0.066
IKTFLVDLTSSNFADSA [YDL116W/NUP84]	2.3 ± 0.089	2.82 ± 0.094	2.78 ± 0.1	2.76 ± 0.069
PIPIAVLDSYTPSTNEP [FAS1]	2.78 ± 0.07	2.59 ± 0.063	2.69 ± 0.074	2.85 ± 0.041
QNCWSLINDSYINDVHL [SSN8]	3.35 ± 0.063	3.22 ± 0.069	3.34 ± 0.054	3.23 ± 0.055
KVFIRESLSLKNIHISK [YML103C/NUP188]	2.09 ± 0.039	2.21 ± 0.045	2.01 ± 0.057	1.92 ± 0.03
NQLVAKLLLLRINSTDE [SRB8]	1.67 ± 0.11	1.22 ± 0.17		1.14 ± 0.055
YPLPKFPTTSHESLVTT [MED8]	1.81 ± 0.056	1.92 ± 0.06	2.12 ± 0.08	1.72 ± 0.063
KVISEILTREVQNSTLA [RPS1B]	2.51 ± 0.11	2.86 ± 0.1	2.64 ± 0.069	2.32 ± 0.059
AFGSSATDISGELRDYI [YJR042W/NUP85]	3.26 ± 0.14	3.54 ± 0.13	2.81 ± 0.11	3.28 ± 0.083
QSEDLSHAVEFFMSERS [YML103C/NUP188]	3.29 ± 0.077	3.37 ± 0.089	3.25 ± 0.066	3.18 ± 0.059
